Experimental data published in article doi:10.1101/2022.04.24.489327.

Target: LRRK2 wild-type (UniProt Q5S007 1-2527)
Test: EMSA

Sequence of LRRK2 wild-type (Q5S007 whole entry): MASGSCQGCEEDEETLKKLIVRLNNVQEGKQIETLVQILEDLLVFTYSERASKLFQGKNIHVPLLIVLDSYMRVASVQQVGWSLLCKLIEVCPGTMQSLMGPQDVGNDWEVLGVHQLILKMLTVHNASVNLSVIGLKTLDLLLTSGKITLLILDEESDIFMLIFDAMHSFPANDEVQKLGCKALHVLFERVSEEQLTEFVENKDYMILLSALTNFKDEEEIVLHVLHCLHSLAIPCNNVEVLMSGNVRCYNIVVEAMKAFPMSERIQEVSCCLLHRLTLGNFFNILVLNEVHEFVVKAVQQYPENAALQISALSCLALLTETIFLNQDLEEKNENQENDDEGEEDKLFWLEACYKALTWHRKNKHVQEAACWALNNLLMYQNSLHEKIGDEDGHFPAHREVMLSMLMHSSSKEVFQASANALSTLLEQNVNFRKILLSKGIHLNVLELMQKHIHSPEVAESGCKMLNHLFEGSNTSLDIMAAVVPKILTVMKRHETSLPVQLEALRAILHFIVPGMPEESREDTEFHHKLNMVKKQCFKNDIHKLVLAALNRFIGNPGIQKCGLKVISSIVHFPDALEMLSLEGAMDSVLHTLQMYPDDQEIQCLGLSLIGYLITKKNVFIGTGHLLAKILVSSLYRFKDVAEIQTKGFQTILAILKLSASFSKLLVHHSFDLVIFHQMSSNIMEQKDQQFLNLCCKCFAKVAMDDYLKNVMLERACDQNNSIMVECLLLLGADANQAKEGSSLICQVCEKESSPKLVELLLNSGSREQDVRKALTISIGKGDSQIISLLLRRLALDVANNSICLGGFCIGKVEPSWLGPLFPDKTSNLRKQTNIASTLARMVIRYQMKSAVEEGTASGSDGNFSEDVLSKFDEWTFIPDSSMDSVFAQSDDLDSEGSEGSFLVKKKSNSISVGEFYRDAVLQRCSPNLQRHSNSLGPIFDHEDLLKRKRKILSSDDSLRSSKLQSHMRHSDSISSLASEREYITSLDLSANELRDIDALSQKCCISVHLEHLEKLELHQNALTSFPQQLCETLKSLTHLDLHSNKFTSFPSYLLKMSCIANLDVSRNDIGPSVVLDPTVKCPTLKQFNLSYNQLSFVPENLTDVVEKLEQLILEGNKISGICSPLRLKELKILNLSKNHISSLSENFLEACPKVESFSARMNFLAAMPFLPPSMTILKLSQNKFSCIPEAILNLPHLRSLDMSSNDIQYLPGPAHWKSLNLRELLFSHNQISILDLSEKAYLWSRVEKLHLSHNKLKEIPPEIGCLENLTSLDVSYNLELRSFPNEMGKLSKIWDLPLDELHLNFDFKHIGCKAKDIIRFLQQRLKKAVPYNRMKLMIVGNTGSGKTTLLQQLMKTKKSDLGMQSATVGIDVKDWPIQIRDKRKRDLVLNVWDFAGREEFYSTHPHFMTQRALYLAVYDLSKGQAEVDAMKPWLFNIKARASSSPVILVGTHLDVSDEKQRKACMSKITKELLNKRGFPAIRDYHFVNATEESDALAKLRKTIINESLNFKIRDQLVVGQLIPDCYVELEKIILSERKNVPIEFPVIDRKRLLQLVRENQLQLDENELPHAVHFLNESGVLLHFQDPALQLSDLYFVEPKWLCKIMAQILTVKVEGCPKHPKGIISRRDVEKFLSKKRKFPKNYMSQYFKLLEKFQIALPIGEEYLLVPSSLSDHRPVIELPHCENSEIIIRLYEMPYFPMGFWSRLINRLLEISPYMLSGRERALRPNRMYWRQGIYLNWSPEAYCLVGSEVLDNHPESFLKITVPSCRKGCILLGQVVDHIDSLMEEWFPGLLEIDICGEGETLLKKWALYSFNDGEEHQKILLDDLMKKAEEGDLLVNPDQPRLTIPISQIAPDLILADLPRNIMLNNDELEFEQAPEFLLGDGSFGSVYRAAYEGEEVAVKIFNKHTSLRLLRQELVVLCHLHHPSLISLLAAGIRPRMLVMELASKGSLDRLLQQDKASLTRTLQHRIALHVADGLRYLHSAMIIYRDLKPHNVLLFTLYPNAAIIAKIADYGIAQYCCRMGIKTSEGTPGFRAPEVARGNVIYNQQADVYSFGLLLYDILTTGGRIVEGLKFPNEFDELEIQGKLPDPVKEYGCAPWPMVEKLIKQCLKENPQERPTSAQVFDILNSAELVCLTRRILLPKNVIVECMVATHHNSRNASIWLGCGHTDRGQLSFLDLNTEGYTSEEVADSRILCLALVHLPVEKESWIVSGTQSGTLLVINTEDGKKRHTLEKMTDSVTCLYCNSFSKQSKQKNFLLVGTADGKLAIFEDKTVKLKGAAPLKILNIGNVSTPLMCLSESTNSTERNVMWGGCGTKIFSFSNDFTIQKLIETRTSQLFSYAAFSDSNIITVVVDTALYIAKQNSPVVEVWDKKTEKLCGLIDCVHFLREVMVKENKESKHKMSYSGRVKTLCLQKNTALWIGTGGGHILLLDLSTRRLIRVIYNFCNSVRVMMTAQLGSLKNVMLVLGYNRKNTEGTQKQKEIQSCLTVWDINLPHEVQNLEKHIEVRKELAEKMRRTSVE

Binder: AGAAAAAAUAUUUAUUGUAUUUUAGUAUAUUUAUAUAA (ssRNA) [BDNF 3'UTR neuronal ELAV binding segment (U-rich)]
- binding result: no binding

Binder: GGAAACAGUCAUUUGCGCACAACUUUAAAAGUCUGCAU (ssRNA) [BDNF 3'UTR control segment without neuronal ELAV sites]
- binding result: no binding
